# Columns and labels:
# [1] = target: FnBP purified from S. aureus strain Newman (Staphylococcus aureus); experiment: competition ELISA on FnBP-coated wells; competitor anti-D320-33 F(ab')2 at 100 µg/ml
# [2] = target: FnBP purified from S. aureus strain Newman (Staphylococcus aureus); experiment: competition ELISA on FnBP-coated wells; competitor anti-D121-34 F(ab')2 at 100 µg/ml
# Human plasma Fn, P02751 32-2296 (ligand), sequence (P02751 other isoform, or with tags, fused parts or gaps limits assumed): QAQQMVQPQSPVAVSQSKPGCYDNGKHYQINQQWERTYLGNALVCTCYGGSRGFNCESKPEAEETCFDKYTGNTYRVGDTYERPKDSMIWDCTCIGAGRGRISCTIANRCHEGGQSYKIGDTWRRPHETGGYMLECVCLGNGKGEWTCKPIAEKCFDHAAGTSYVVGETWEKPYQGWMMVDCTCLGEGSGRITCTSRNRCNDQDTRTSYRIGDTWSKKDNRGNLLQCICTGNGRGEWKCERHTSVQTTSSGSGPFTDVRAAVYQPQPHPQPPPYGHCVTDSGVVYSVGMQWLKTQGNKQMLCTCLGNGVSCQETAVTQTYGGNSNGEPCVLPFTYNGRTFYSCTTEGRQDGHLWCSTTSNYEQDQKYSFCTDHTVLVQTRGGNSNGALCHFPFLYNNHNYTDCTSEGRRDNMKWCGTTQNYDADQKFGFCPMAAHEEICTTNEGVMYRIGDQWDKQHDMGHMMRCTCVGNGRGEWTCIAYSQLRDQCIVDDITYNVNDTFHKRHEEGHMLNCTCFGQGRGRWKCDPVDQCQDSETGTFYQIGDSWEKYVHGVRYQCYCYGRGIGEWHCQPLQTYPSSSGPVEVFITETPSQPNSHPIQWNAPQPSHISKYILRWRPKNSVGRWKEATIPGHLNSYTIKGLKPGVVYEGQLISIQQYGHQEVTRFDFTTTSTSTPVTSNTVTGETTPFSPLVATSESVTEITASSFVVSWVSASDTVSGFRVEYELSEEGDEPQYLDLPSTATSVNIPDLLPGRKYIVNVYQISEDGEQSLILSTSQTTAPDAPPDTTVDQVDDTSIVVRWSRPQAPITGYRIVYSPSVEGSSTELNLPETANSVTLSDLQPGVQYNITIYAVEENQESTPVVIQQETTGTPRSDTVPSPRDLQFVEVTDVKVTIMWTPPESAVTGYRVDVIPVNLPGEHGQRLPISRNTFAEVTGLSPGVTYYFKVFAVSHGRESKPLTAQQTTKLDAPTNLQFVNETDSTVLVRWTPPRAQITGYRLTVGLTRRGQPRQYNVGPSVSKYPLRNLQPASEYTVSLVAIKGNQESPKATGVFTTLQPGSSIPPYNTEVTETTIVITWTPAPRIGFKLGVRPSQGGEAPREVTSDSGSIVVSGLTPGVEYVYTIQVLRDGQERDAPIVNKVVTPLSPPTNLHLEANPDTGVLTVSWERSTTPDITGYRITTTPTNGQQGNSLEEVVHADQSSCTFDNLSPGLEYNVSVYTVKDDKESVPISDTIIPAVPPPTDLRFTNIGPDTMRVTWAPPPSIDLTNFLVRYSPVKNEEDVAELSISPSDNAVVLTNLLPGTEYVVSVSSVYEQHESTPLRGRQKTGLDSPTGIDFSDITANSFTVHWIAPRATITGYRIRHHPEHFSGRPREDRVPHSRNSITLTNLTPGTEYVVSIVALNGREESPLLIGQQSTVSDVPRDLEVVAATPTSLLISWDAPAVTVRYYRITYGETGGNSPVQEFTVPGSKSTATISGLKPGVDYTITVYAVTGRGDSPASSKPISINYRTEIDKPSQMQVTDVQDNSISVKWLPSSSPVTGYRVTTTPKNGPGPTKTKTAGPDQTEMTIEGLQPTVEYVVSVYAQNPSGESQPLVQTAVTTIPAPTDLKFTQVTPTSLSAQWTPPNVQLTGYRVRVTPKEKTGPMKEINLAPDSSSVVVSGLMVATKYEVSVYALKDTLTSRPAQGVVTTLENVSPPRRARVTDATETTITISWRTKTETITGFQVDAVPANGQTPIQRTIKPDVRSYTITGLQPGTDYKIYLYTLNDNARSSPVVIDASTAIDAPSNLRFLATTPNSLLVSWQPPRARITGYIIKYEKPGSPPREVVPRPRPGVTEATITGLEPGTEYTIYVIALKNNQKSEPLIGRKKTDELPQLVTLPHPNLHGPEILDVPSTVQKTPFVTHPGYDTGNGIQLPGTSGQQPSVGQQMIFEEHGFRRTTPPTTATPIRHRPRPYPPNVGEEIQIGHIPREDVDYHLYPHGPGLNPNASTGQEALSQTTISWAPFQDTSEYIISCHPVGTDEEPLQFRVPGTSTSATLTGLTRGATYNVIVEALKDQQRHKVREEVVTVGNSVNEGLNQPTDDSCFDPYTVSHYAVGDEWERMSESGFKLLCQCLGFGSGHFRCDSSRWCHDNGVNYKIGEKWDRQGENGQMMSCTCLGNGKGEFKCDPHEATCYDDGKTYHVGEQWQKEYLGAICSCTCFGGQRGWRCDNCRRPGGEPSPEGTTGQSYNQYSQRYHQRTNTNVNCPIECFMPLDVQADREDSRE
substance,measurement,setting,value
"Human plasma Fn, P02751 32-2296 (ligand)",concentration of soluble Fn at which F(ab')2 recognition of FnBP was virtually eliminated,[1],50 µg/mL
same,concentration of soluble Fn at which F(ab')2 recognition of FnBP was virtually eliminated,[2],50 µg/mL
